Experimental data as given in patent US6403769.
Values belong to the substance of their own block, whether it stands above or below them.

What was measured:
[1] = target: keratinocyte growth factor (KGF) (human) (UniProt P21781); test: 50% displacement of 125I-KGF by unlabeled KGF, fusion protein captured on Gamma Bind G (Scatchard analysis)
[2] = target: KGFR-HFc fusion protein (construct not specified); test: binding of 125I-aFGF to KGFR-HFc in solution, capture on Gamma Bind G
[3] = target: keratinocyte growth factor (KGF) (human) (UniProt P21781); test: comparison value for native KGFR on epithelial cells; method not described
[4] = target: bovine brain aFGF (bovine) (UniProt P03968); test: comparison value for native KGFR; method not described
Sequence of bovine brain aFGF (bovine) (P03968 16-155 limits assumed): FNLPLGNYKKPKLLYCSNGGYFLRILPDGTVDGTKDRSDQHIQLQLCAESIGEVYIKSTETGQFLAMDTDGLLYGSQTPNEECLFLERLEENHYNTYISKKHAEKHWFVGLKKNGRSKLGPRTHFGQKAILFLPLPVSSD

[5] = target: keratinocyte growth factor receptor (KGFR) (UniProt P21803); test: cell-based or functional assay
[6] = target: keratinocyte growth factor receptor (KGFR) (UniProt P21803); test: competition with 125I-KGF on 32D cells expressing KGFR
[7] = target: keratinocyte growth factor receptor (KGFR) (UniProt P21803); test: flow cytometry on KGFR-containing B5-589 cells and NIH 3T3 transfectants, FITC rabbit anti-mouse IgG

Sequence of KGF-HFc fusion protein (P21781 other isoform, or with tags, fused parts or gaps limits assumed): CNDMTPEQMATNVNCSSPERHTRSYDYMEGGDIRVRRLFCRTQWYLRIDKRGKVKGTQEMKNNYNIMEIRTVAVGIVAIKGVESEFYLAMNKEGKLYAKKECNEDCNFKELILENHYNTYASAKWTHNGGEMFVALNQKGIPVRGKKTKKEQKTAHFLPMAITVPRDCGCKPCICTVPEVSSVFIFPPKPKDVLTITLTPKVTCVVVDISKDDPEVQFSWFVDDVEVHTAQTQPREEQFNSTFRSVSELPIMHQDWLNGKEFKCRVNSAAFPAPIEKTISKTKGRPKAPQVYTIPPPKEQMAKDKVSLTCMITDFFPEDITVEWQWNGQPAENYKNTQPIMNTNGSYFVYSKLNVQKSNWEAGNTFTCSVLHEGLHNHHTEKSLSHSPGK
Sequence of keratinocyte growth factor (KGF) (human) (P21781 32-194 limits assumed): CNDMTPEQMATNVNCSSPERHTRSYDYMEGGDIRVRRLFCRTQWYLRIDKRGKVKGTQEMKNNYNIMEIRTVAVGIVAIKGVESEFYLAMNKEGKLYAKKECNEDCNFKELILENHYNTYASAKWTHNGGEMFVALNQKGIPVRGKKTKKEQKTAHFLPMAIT
Sequence of bovine brain aFGF (P03968 16-155 limits assumed): as the sequence (P03968 16-155 limits assumed) above

- Kd [1]: 0.02 nM
Substance: D3-HFc fusion protein (from UniProt P21803 157-232; P01868 98-324)

- ligand concentration at which saturable binding was achieved [2]: 40 to 50 ng/mL
Substance: bovine brain aFGF (from UniProt P03968 16-155) (ligand)

- Kd [3]: 0.18 nM
- Kd [4]: 0.6 nM
Substance: keratinocyte growth factor receptor (KGFR) (from UniProt P21803 22-821)

- half-maximal stimulation of 3H-thymidine uptake in BALB/MK cells [5]: 45 pM
- stimulation of 3H-thymidine uptake in BALB/MK cells [5]: > 20 fold
- Kd [6]: 1.4 nM
- fold increase in fluorescent intensity compared to untransfected NIH 3T3 cells [7]: 10 to 100 fold
Substance: KGF-HFc fusion protein (from UniProt P21781 32-194; P01868 98-324)
